The supplement of paper PMC6757056
± gives the standard deviation of the averaged measurements.

B1: library; a variant is named by its letters at N, in order (parent)
chain: GCUGUCACCGGUGUAUUACCCUAGUGGUCGACCGGUCUGAUGAGUCUNNNNNNAGACGAAACAGC

How the values were obtained:
hypoxanthine [1] = variants of: B1; experiment: normalized RNA/DNA level with ligand (relative to sTRSVctl = 100) (log10 (% of sTRSVctl)); ligand: hypoxanthine (xanthine aptamer); higher = less ribozyme self-cleavage, higher mRNA level; conditions: ligand concentration (+) RNA-Seq: 5 mM, HEK293T, reporter: mCherry (pCS4076), ligand present: yes
Outline: (§1)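 Ribozyme switch library plasmids linked to reporters were introduced into HEK293T cells at 4 µg per 6-well well, with ligand, if any, added 1 h before. Total RNA was extracted with EDTA 72 h later, reverse-transcribed, amplified, barcoded and sequenced. RNA level was computed from RNA over DNA reads relative to a spiked-in non-cleaving sequence or the top sequences, then scaled and log-transformed. The top set was 25 sequences, values were ×100 and log10, and the cutoff was ≥100 DNA reads.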

hypoxanthine [2] = variants of: B1; experiment: normalized RNA/DNA level without ligand (relative to sTRSVctl = 100) (log10 (% of sTRSVctl)); ligand: hypoxanthine (xanthine aptamer); higher = less ribozyme self-cleavage, higher mRNA level; conditions: HEK293T, reporter: mCherry (pCS4076), ligand present: no
Outline: as §1

## GCUGUCACCGGUGUAUUACCCUAGUGGUCGACCGGUCUGAUGAGUCUGUACAUAGACGAAACAGC [GUACAU]
Hypoxanthine [1]
  normalized RNA/DNA level with ligand (log10): 1.9 ± 0.034
Hypoxanthine [2]
  normalized RNA/DNA level without ligand (log10): 1.77 ± 0.056

## GCUGUCACCGGUGUAUUACCCUAGUGGUCGACCGGUCUGAUGAGUCUAUACAUAGACGAAACAGC [AUACAU]
Hypoxanthine [1]
  normalized RNA/DNA level with ligand (log10): 1.91 ± 0.03
Hypoxanthine [2]
  normalized RNA/DNA level without ligand (log10): 1.794 ± 0.017

## GCUGUCACCGGUGUAUUACCCUAGUGGUCGACCGGUCUGAUGAGUCUCUACCAAGACGAAACAGC [CUACCA]
Hypoxanthine [1]
  normalized RNA/DNA level with ligand (log10): 1.93 ± 0.053
Hypoxanthine [2]
  normalized RNA/DNA level without ligand (log10): 1.82 ± 0.02

## GCUGUCACCGGUGUAUUACCCUAGUGGUCGACCGGUCUGAUGAGUCUUUACCAAGACGAAACAGC [UUACCA]
Hypoxanthine [1]
  normalized RNA/DNA level with ligand (log10): 1.95 ± 0.038
Hypoxanthine [2]
  normalized RNA/DNA level without ligand (log10): 1.871 ± 0.008

## GCUGUCACCGGUGUAUUACCCUAGUGGUCGACCGGUCUGAUGAGUCUAUACCAAGACGAAACAGC [AUACCA]
Hypoxanthine [1]
  normalized RNA/DNA level with ligand (log10): 1.91 ± 0.02
Hypoxanthine [2]
  normalized RNA/DNA level without ligand (log10): 1.88 ± 0.031

## GCUGUCACCGGUGUAUUACCCUAGUGGUCGACCGGUCUGAUGAGUCUCUACCCAGACGAAACAGC [CUACCC]
Hypoxanthine [1]
  normalized RNA/DNA level with ligand (log10): 1.935 ± 0.014
Hypoxanthine [2]
  normalized RNA/DNA level without ligand (log10): 1.88 ± 0.06

## GCUGUCACCGGUGUAUUACCCUAGUGGUCGACCGGUCUGAUGAGUCUGUACCCAGACGAAACAGC [GUACCC]
Hypoxanthine [1]
  normalized RNA/DNA level with ligand (log10): 1.9 ± 0.045
Hypoxanthine [2]
  normalized RNA/DNA level without ligand (log10): 1.8666 ± 0.0018

## GCUGUCACCGGUGUAUUACCCUAGUGGUCGACCGGUCUGAUGAGUCUUUACCCAGACGAAACAGC [UUACCC]
Hypoxanthine [1]
  normalized RNA/DNA level with ligand (log10): 1.973 ± 0.0071
Hypoxanthine [2]
  normalized RNA/DNA level without ligand (log10): 1.93 ± 0.064

## GCUGUCACCGGUGUAUUACCCUAGUGGUCGACCGGUCUGAUGAGUCUCUACCGAGACGAAACAGC [CUACCG]
Hypoxanthine [1]
  normalized RNA/DNA level with ligand (log10): 1.95 ± 0.025
Hypoxanthine [2]
  normalized RNA/DNA level without ligand (log10): 1.8 ± 0.026

## GCUGUCACCGGUGUAUUACCCUAGUGGUCGACCGGUCUGAUGAGUCUCUACCUAGACGAAACAGC [CUACCU]
Hypoxanthine [1]
  normalized RNA/DNA level with ligand (log10): 1.96 ± 0.092
Hypoxanthine [2]
  normalized RNA/DNA level without ligand (log10): 1.9389 ± 0.0018

## GCUGUCACCGGUGUAUUACCCUAGUGGUCGACCGGUCUGAUGAGUCUGUACCUAGACGAAACAGC [GUACCU]
Hypoxanthine [1]
  normalized RNA/DNA level with ligand (log10): 1.985 ± 0.016
Hypoxanthine [2]
  normalized RNA/DNA level without ligand (log10): 1.9131 ± 0.00047

## GCUGUCACCGGUGUAUUACCCUAGUGGUCGACCGGUCUGAUGAGUCUUUACCUAGACGAAACAGC [UUACCU]
Hypoxanthine [1]
  normalized RNA/DNA level with ligand (log10): 1.99 ± 0.053
Hypoxanthine [2]
  normalized RNA/DNA level without ligand (log10): 1.88 ± 0.029

## GCUGUCACCGGUGUAUUACCCUAGUGGUCGACCGGUCUGAUGAGUCUAUACCUAGACGAAACAGC [AUACCU]
Hypoxanthine [1]
  normalized RNA/DNA level with ligand (log10): 1.985 ± 0.013
Hypoxanthine [2]
  normalized RNA/DNA level without ligand (log10): 1.9 ± 0.039

## GCUGUCACCGGUGUAUUACCCUAGUGGUCGACCGGUCUGAUGAGUCUCUACGAAGACGAAACAGC [CUACGA]
Hypoxanthine [1]
  normalized RNA/DNA level with ligand (log10): 1.97 ± 0.034
Hypoxanthine [2]
  normalized RNA/DNA level without ligand (log10): 1.87 ± 0.034

## GCUGUCACCGGUGUAUUACCCUAGUGGUCGACCGGUCUGAUGAGUCUGUACGAAGACGAAACAGC [GUACGA]
Hypoxanthine [1]
  normalized RNA/DNA level with ligand (log10): 1.91 ± 0.04
Hypoxanthine [2]
  normalized RNA/DNA level without ligand (log10): 1.686 ± 0.0047

## GCUGUCACCGGUGUAUUACCCUAGUGGUCGACCGGUCUGAUGAGUCUUUACGAAGACGAAACAGC [UUACGA]
Hypoxanthine [1]
  normalized RNA/DNA level with ligand (log10): 1.923 ± 0.01
Hypoxanthine [2]
  normalized RNA/DNA level without ligand (log10): 1.89 ± 0.022

## GCUGUCACCGGUGUAUUACCCUAGUGGUCGACCGGUCUGAUGAGUCUAUACGAAGACGAAACAGC [AUACGA]
Hypoxanthine [1]
  normalized RNA/DNA level with ligand (log10): 1.868 ± 0.018
Hypoxanthine [2]
  normalized RNA/DNA level without ligand (log10): 1.7 ± 0.025

## GCUGUCACCGGUGUAUUACCCUAGUGGUCGACCGGUCUGAUGAGUCUCUACGCAGACGAAACAGC [CUACGC]
Hypoxanthine [1]
  normalized RNA/DNA level with ligand (log10): 1.961 ± 0.011
Hypoxanthine [2]
  normalized RNA/DNA level without ligand (log10): 1.913 ± 0.007

## GCUGUCACCGGUGUAUUACCCUAGUGGUCGACCGGUCUGAUGAGUCUGUACGCAGACGAAACAGC [GUACGC]
Hypoxanthine [1]
  normalized RNA/DNA level with ligand (log10): 1.95 ± 0.033
Hypoxanthine [2]
  normalized RNA/DNA level without ligand (log10): 1.84 ± 0.062

## GCUGUCACCGGUGUAUUACCCUAGUGGUCGACCGGUCUGAUGAGUCUUUACGCAGACGAAACAGC [UUACGC]
Hypoxanthine [1]
  normalized RNA/DNA level with ligand (log10): 1.94 ± 0.029
Hypoxanthine [2]
  normalized RNA/DNA level without ligand (log10): 1.81 ± 0.054

## GCUGUCACCGGUGUAUUACCCUAGUGGUCGACCGGUCUGAUGAGUCUCUACGGAGACGAAACAGC [CUACGG]
Hypoxanthine [1]
  normalized RNA/DNA level with ligand (log10): 1.93 ± 0.047
Hypoxanthine [2]
  normalized RNA/DNA level without ligand (log10): 1.98 ± 0.071
